Results published in US20220339270A1.

Legend:
[1] = target: Phospho_Tau441 (Tau441 phosphorylated in vitro by DYRK1A) (human), P10636; experiment: ELISA, PT3 immobilized, tau protein applied at 333 ng/mL; conditions: remark: other sources report otherwise
[2] = target: Tau441 (recombinant, not phosphorylated) (human), P10636; experiment: as above; conditions: remark: other sources report otherwise
Tau441 (recombinant, not phosphorylated) (human), P10636, sequence (P10636 other isoform, or with tags, fused parts or gaps limits assumed): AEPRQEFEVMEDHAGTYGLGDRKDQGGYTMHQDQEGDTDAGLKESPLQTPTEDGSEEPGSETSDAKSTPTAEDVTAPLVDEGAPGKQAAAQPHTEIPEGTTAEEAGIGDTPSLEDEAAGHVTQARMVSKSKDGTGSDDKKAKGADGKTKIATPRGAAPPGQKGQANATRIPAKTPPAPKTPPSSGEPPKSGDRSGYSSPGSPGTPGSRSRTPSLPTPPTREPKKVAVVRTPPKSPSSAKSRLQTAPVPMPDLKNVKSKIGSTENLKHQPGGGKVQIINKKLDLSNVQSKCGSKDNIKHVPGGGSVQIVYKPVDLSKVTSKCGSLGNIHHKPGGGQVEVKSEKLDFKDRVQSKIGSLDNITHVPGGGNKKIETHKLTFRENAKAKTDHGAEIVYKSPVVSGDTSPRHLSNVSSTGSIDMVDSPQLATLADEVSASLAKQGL

Phospho_Tau441 (Tau441 phosphorylated in vitro by DYRK1A) (human), P10636, sequence (P10636 other isoform, or with tags, fused parts or gaps limits assumed): as above

- OD450-570 [1]: 0.5
- OD450-570 [2]: 0
B1: anti-tau antibody PT3 (antibody, V domains shown)
VH: EVKLVESGGDLVKPGGSLKLSCAASGFTFSSYAMSWVRQNPEKRLEWVASISKGGNTYYPNSVKGRFTISRDNARNILYLQMSSLRSEDTALYYCARGWGDYGWFAYWGQVTLVTVSA
VL: DIKMTQSPSSMYASLGERVTITCKASQDINRYLNWFQQKPGKSPKTLIYRANRLLDGVPSRFSGSGSGQDYSLTISSLDYEDMGIYYCLQYDEFPLTFGDGTKLELK
